Test results taken from US20250230251A1 (Bristol-Myers Squibb, published 2025).

Assays:
huIL-18Rβ-HisAvi [1] = target: T1, huIL-18Rβ-HisAvi (human, UniProt O95256 20-356, biotinylated in the Octet blocking assay); assay: SPR Biacore T200, mAb captured on anti-human Fc, huIL-18Rβ-HisAvi as analyte, PBST pH 6.0, 37 °C, 1:1 Binding fit
T1 construct: Soluble analyte in all SPR runs; captured on streptavidin sensors in the Octet assay; also called human IL-18Rβ; human IL-18Rβ-Avi-His
T1 sequence: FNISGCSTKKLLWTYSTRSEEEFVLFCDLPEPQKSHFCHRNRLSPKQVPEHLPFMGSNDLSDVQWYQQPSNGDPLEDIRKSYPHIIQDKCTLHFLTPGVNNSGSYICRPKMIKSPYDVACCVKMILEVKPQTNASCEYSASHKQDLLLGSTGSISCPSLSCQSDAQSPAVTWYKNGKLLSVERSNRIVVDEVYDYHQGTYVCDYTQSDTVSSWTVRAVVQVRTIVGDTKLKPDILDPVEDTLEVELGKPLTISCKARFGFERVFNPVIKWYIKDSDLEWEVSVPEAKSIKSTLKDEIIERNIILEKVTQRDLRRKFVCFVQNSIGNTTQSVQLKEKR

human IL-18Rβ on cells [2] = target: T2, human IL-18Rβ on cells (human, UniProt O95256 20-599); assay: cell-based or functional assay
T2 sequence: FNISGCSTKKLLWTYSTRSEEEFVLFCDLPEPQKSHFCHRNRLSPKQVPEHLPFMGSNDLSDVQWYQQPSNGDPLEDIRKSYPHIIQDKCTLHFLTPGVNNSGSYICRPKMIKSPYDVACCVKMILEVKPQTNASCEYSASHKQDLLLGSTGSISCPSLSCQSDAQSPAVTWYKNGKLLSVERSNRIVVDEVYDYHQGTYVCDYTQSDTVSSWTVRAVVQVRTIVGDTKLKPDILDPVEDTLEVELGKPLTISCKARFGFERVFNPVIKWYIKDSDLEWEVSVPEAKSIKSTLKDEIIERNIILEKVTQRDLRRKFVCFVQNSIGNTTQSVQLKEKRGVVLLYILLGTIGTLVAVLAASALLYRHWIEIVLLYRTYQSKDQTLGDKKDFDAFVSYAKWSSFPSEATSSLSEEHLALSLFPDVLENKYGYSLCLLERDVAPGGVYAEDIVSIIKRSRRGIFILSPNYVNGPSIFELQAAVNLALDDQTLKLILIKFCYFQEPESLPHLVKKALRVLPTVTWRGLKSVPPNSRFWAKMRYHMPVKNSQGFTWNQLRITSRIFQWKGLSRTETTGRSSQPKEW

human IL-18Rβ on cells [3] = target: T2, human IL-18Rβ on cells; assay: cell-based or functional assay; remark: listed apart in the source
[4] = target: T3, cynomolgus monkey IL-18Rβ on cells (cynomolgus monkey, UniProt A0A7N9D6S0 20-598); assay: cell-based or functional assay
T3 sequence: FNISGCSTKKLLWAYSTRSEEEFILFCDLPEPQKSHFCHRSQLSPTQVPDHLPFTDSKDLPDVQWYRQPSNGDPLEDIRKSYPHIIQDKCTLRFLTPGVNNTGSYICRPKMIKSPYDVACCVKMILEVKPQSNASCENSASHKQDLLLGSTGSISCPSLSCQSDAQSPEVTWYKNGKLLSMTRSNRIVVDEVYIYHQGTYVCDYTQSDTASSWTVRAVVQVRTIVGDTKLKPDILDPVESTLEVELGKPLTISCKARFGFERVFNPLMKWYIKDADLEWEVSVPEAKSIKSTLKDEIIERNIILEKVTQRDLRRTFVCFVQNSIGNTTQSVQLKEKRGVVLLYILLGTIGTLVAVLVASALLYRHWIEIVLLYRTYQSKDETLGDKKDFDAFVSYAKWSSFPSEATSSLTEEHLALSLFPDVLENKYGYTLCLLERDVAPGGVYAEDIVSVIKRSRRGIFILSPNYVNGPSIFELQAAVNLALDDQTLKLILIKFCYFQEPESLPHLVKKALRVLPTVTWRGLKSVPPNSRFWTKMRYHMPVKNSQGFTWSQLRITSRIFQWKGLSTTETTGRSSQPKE

human IL-18Rβ on cells [5] = target: T2, human IL-18Rβ on cells; assay: cell-based or functional assay; remark: listed apart in the source
huIL-18Rβ-HisAvi [6] = target: T1, huIL-18Rβ-HisAvi; assay: SPR T200, pH 7; sample T0
huIL-18Rβ-HisAvi [7] = target: T1, huIL-18Rβ-HisAvi; assay: SPR T200, pH 7; sample 4 w 4C

B1: P20 (antibody, human IgG1, kappa)
heavy: QVQLQQSGPGLVKPSETLSLTCTVSGGSINNYYWSWIRQPPGKGLEWIGYIFYSGTTNYNPSLKSRVTISVDTSKNQFSLKLSSVTAADTAVYYCARDVGIAARNSYYYVMDVWGQGTTVTVSSASTKGPSVFPLAPSSKSTSGGTAALGCLVKDYFPEPVTVSWNSGALTSGVHTFPAVLQSSGLYSLSSVVTVPSSSLGTQTYICNVNHKPSNTKVDKRVEPKSCDKTHTCPPCPAPEAEGAPSVFLFPPKPKDTLMISRTPEVTCVVVDVSHEDPEVKFNWYVDGVEVHNAKTKPREEQYNSTYRVVSVLTVLHQDWLNGKEYKCKVSNKALPAPIEKTISKAKGQPREPQVYTLPPSREEMTKNQVSLTCLVKGFYPSDIAVEWESNGQPENNYKTTPPVLDSDGSFFLYSKLTVDKSRWQQGNVFSCSVMHEALHNHYTQKSLSLSPG
light: AIQLTQSPSSLSASVGDRVTITCRASQGISSALAWYQQKPGKAPKFLIYDASSLESGVPSRFSGSGSGTDFTLTISSLQPEDFATYYCQQFNSYPITFGQGTRLEIKRTVAAPSVFIFPPSDEQLKSGTASVVCLLNNFYPREAKVQWKVDNALQSGNSQESVTEQDSKDSTYSLSSTLTLSKADYEKHKVYACEVTHQGLSSPVTKSFNRGEC
notes: Human IgG
With B1 the “apparent Kd (pooled screen)” value (huIL-18Rβ-HisAvi [1]) was 2.35 nM, the “apparent koff (pooled screen)” value (huIL-18Rβ-HisAvi [1]) was 0.000329 s⁻¹ and the “apparent kon (pooled screen)” value (huIL-18Rβ-HisAvi [1]) was 140000 M⁻¹ s⁻¹.

B2: P20-V1 (antibody, human IgG1, kappa, V domains shown)
VH: QVQLQESGPGLVKPSETLSLTCTVSGGSINNYYWSWIRQPPGKGLEWIGYIFYSGTTNYNPSLKSRVTISVDTSKNQFSLKLSSVTAADTAVYYCARDVGIAARNSYYYVMDVWGQGTTVTVSS
VL: AIQLTQSPSSLSASVGDRVTITCRASQGISSALAWYQQKPGKAPKFLIYEASSLESGVPSRFSGSGSGTDFTLTISSLQPEDFATYYCQQFNSYPITFGQGTRLEIKR
notes: Variant of P20
With B2 the “Average IC50, LPS+IL-12 dependent IFNg production, human whole blood” value (human IL-18Rβ on cells [2]) was 1.04 nM, the “IC50, IFNg, human whole blood LPS+IL-12, Average” value (human IL-18Rβ on cells [3]) was 1.6 nM and the “IC50, IFNg, human whole blood LPS+IL-12, donor C163” value (human IL-18Rβ on cells [3]) was 1.1 nM. The “IC50, IFNg, human whole blood LPS+IL-12, donor C175” value (human IL-18Rβ on cells [3]) was 1.48 nM, the “IC50, IFNg, human whole blood LPS+IL-12, donor C177” value (human IL-18Rβ on cells [3]) was 0.47 nM and the “IC50, IFNg, human whole blood LPS+IL-12, donor C198” value (human IL-18Rβ on cells [3]) was 4.9 nM. For the same binder, the “IC50, IFNg, human whole blood LPS+IL-12, donor C200” value (human IL-18Rβ on cells [3]) was 2.55 nM, the “IC50, IFNg, human whole blood LPS+IL-12, donor C205” value (human IL-18Rβ on cells [3]) was 1.56 nM and the “IC50, IFNg, human whole blood LPS+IL-12, donor C215” value (human IL-18Rβ on cells [3]) was 1.54 nM. For the same binder, the “IC50, IFNg, human whole blood LPS+IL-12, donor C223” value (human IL-18Rβ on cells [3]) was 0.83 nM, the “IC50, IFNg, human whole blood LPS+IL-12, donor C229” value (human IL-18Rβ on cells [3]) was 1.3 nM and the “IC50, IFNg, human whole blood LPS+IL-12, donor C238” value (human IL-18Rβ on cells [3]) was 0.57 nM. The “IC50, IFNg, human whole blood LPS+IL-12, donor C241” value (human IL-18Rβ on cells [3]) was 1.2 nM, the “IC50, IFNg, human whole blood LPS+IL-12, donor C245” value (human IL-18Rβ on cells [3]) was 1.22 nM and the “IC50, IFNg, human whole blood LPS+IL-12, donor C251” value (human IL-18Rβ on cells [3]) was 1.7 nM. The “IC50, IFNg, human whole blood LPS+IL-12, donor C256” value (human IL-18Rβ on cells [3]) was 1.38 nM, the “IC50, IFNg, human whole blood LPS+IL-12, donor C257” value (human IL-18Rβ on cells [3]) was 2.22 nM and the “IC50, IFNg, cyno whole blood IL-18+IL-12, Average” value [4] was 4.3 nM. For the same binder, the “IC50, IFNg, cyno whole blood IL-18+IL-12, donor B7619 (f)” value [4] was 5.1 nM, the “IC50, IFNg, cyno whole blood IL-18+IL-12, donor B8476 (m)” value [4] was 3.3 nM and the “IC50, IFNg, cyno whole blood IL-18+IL-12, donor B9301 (f)” value [4] was 4.7 nM. The “IC50, IFNg, cyno whole blood IL-18+IL-12, donor B9313 (m)” value [4] was 2.4 nM, the “IC50, IFNg, cyno whole blood IL-18+IL-12, donor B9447 (m)” value [4] was 5.1 nM and the “IC50, IFNg, cyno whole blood IL-18+IL-12, donor B9496 (m)” value [4] was 1.9 nM. The “IC50, IFNg, cyno whole blood IL-18+IL-12, donor B21333 (f)” value [4] was 1.8 nM, the “IC50, IFNg, cyno whole blood IL-18+IL-12, donor B21374 (f)” value [4] was 2.5 nM and the “IC50, IFNg, cyno whole blood IL-18+IL-12, donor B21394 (f)” value [4] was 6 nM. The “IC50, IFNg, cyno whole blood IL-18+IL-12, donor B21411 (f)” value [4] was 5.1 nM, the “IC50, IFNg, cyno whole blood IL-18+IL-12, donor B21435 (f)” value [4] was 10.5 nM and the “IC50, IFNg, cyno whole blood IL-18+IL-12, donor B21438 (f)” value [4] was 2.2 nM. The “IC50, IFNg, cyno whole blood IL-18+IL-12, donor B22017 (f)” value [4] was 5.7 nM, the “IC50, IFNg, cyno whole blood IL-18+IL-12, donor B22187 (m)” value [4] was 3.9 nM and the “Average IC50, IFNg, Crohn's disease LPLs, IL-18+IL-12” value (human IL-18Rβ on cells [5]) was 18.3 nM. For the same binder, the “Average IC50, IFNg, healthy (non-IBD) LPLs, IL-18+IL-12” value (human IL-18Rβ on cells [5]) was 39.8 nM, the “Average IC50, IFNg, ulcerative colitis LPLs, IL-18+IL-12” value (human IL-18Rβ on cells [5]) was 16.5 nM and the “IC50, IFNg, Crohn's disease LPLs, IL-18+IL-12, replicate 1” value (human IL-18Rβ on cells [5]) was 3.82 nM. The “IC50, IFNg, Crohn's disease LPLs, IL-18+IL-12, replicate 2” value (human IL-18Rβ on cells [5]) was 15.4 nM, the “IC50, IFNg, Crohn's disease LPLs, IL-18+IL-12, replicate 3” value (human IL-18Rβ on cells [5]) was 89.9 nM and the “IC50, IFNg, Crohn's disease LPLs, IL-18+IL-12, replicate 4” value (human IL-18Rβ on cells [5]) was 9.47 nM. For the same binder, the “IC50, IFNg, Crohn's disease LPLs, IL-18+IL-12, replicate 5” value (human IL-18Rβ on cells [5]) was 19.6 nM, the “IC50, IFNg, Crohn's disease LPLs, IL-18+IL-12, replicate 6” value (human IL-18Rβ on cells [5]) was 5.68 nM and the “IC50, IFNg, Crohn's disease LPLs, IL-18+IL-12, replicate 7” value (human IL-18Rβ on cells [5]) was 0.9 nM. The “IC50, IFNg, Crohn's disease LPLs, IL-18+IL-12, replicate 8” value (human IL-18Rβ on cells [5]) was 1.33 nM, the “IC50, IFNg, healthy (non-IBD) LPLs, IL-18+IL-12, replicate 1” value (human IL-18Rβ on cells [5]) was 12.8 nM and the “IC50, IFNg, healthy (non-IBD) LPLs, IL-18+IL-12, replicate 2” value (human IL-18Rβ on cells [5]) was 9.57 nM. For the same binder, the “IC50, IFNg, healthy (non-IBD) LPLs, IL-18+IL-12, replicate 3” value (human IL-18Rβ on cells [5]) was 44.8 nM, the “IC50, IFNg, healthy (non-IBD) LPLs, IL-18+IL-12, replicate 4” value (human IL-18Rβ on cells [5]) was 132 nM and the “IC50, IFNg, healthy (non-IBD) LPLs, IL-18+IL-12, replicate 5” value (human IL-18Rβ on cells [5]) was 0.0116 nM. For the same binder, the “IC50, IFNg, ulcerative colitis LPLs, IL-18+IL-12, replicate 1” value (human IL-18Rβ on cells [5]) was 34.4 nM, the “IC50, IFNg, ulcerative colitis LPLs, IL-18+IL-12, replicate 2” value (human IL-18Rβ on cells [5]) was 10.8 nM and the “IC50, IFNg, ulcerative colitis LPLs, IL-18+IL-12, replicate 3” value (human IL-18Rβ on cells [5]) was 10.3 nM. The “IC50, IFNg, ulcerative colitis LPLs, IL-18+IL-12, replicate 4” value (human IL-18Rβ on cells [5]) was 2.63 nM, the “IC50, IFNg, ulcerative colitis LPLs, IL-18+IL-12, replicate 5” value (human IL-18Rβ on cells [5]) was 0.0024 nM and the “IC50, IFNg, ulcerative colitis LPLs, IL-18+IL-12, replicate 6” value (human IL-18Rβ on cells [5]) was 0.402 nM. The “IC50, IFNg, ulcerative colitis LPLs, IL-18+IL-12, replicate 7” value (human IL-18Rβ on cells [5]) was 56.7 nM, the Kd (huIL-18Rβ-HisAvi [6]) was 0.27 nM and the koff (huIL-18Rβ-HisAvi [6]) was 7.2e-05 s⁻¹. For the same binder, the kon (huIL-18Rβ-HisAvi [6]) was 270000 M⁻¹ s⁻¹, the Kd (huIL-18Rβ-HisAvi [7]) was 0.2 nM and the koff (huIL-18Rβ-HisAvi [7]) was 5.7e-05 s⁻¹. For the same binder, the kon (huIL-18Rβ-HisAvi [7]) was 280000 M⁻¹ s⁻¹.
